In the DeepSol protein solubility set:

test: soluble on expression in E. coli; label from the status in PepcDB or PDB records

Sequence | soluble on expression in E. coli
MGSDKIHHHHHHMRYTLRQLEVFVAIAQHESVSLAARRLAMSQSATSTALAELERQFDCQLLDRIGKRLKLNALGFQLLPKAVALLDRGEEIEELLKGQRGIGSLDVGATLTIGNYLATLLISDFMRRHPGSRVRLHVRNTASIVDRVTHHDLDLGLIEGDCQHDDIVMQPWVEDELTVFCSPRHPLANAGEADLEALMREDWIMREEGSGTRRTLDQAMRHRRGRLNVLLELEHTEAIKRAVESGLGIGCVSHLALRDAFRRGSLVPIATPELDLTRQFTFIWHRHKYLTTAMREFLRLCREMTAGVQRSDEIDLPAVP | not soluble
MSLEITKIEVHVIGPEDKRYTWSEDIEEVYQSNTLIKIFTDEDIVGEAAIWNATYFEYDKYTAESLRHLLPILIGKDPLNREEILYDIRPRVFPQPPGAQALIDNALWDILGKKCKSPIYKILGGRRDKIKSYASTVMYNTIDEYLKVVDEMKEQGFSAVKFHTYCIPKKDLELAEAARKAFPSMSFMIDAENNYDLESSLIVAKKLEKLEFTWFEAPLPDYDFAGYKKITDSVGIKVIPSGNWVVDLQRFSEAIHNKVWSATRTDMAMMGGITNCKKAIDLSSAGGLDCEIMSWGYTLVSAANLHLMLSSDNCSYYEQPLPYNNFEFGMKDVLRTSQDGYMYAPTKPGLGMEIDWDKMMSKNIYSITCEEGKKISLVHSEGHHHHHH | soluble
MSLNTVIADFTERAGTGRVLKAEPEAIQLAPEQTALIVVDMQNAYTSIGGYLDLAGFDVSKTKPVVENIQKAVTAAHAAGIQVIYFKNGWDNQYVEAGGAGSPNFHKSNALKTMRKQPELQGKLLAKGGWDFELIDELQPKSQDIVIEKPRYSGFFNTALDSMLRARGIRNLVFVGIATNVCVESTLRDGFFLEYFGVALDDACYQAGPVEMHRASMYNIKTFFGWVSDTEGHHHHHH | not soluble
MPPASLTFEPPSVVAVFATHAVLCWEQPRTPHTTSFAEHMAWEYQIEYNCSCRVRQQPYCATGSNTFVLLATPHEGETYYVRVVAKASFAGSTSGLVSAKAAFTASCNVAMPWRCSARPPVCVFDALYLSANVEAEDIAALSAARSSTIDNAAVLDGKSVCYTLEGDIAVRTYRMLYSGTAALPVGPARTVYYMVATTRLHTGKRTRAMELLSIMQREGASIVFCGIGDGGRLALCAALTFLSFLTTACPALCASVLCITYGTPRLLLKEGPRLLAHTLPLSGQLLHFTQLPLIEHTPFVSDTVALSQRGSGVAVDTPPLGYANGFYRNMLLGAQCRVTDWTGLHFRLSSPDELSTEAEEAEVFDVVGQLRALSELFFPSSLQWLSPSVTSVSCRTEGPLLHVSVEGLTCITALG | not soluble
MGSDKIHHHHHHMKTDITVVKASHLQPFISFLDKVGAPLDRLLNQVNLHADYFSDQENLIAEAPFWALLEHASYSQGIEDLGFQVTEQLSLDSFGVFGAKVMQADSLHQALTTFIRDMGQQSNCPPFWLMEQGAFVWFCRLGTQGIKKGHWPIEQHVISLMIQLVRGFTTATWTPPKVHLQTHTLKGADNTASFSNSQILINKAFTGICISKSLLLNGAVIKPKDRVAEEVAHQMTISTVNSHVIKELLMQSCANQPLNAQQIANSLGLNIRHMQRLLKEEGCSYRELSEQVLFKQSQVMLSTEQLSVLEVALALGYSDAANFTRAFKRWSGLSPTQYKLLLN | not soluble
MKKIMTIFGTRPEAIKMAPLVKALEQEKMLEPIVVVTAQHREMLDSVLSTFEIKPKYDLNIMKSGQTLSEITSKSITQLEQVIQLEKPDMVLVHGDTMTTFAGGLAAFYNQVPIGHVEAGLRSYDKYSPFPEEVNRQLVGVLADLHFAPTKNAASHLLSEGKYSESVVVTGNTAIDAMKYTVDDNYKSNIMDKYHDKKFILMTAHRRENIGKPMENIFKAVRRLIDEYTDLALVYPMHKNPKVREVAQKILGSHDRIELIEPLDVVDFHNFAKKSYFILTDSGGIQEEAPSFNKPVLVLRSVTERPEGVEAGTLKVIGTNKQNVYQAAKELIDDERLYHQMSEASNPYGDGFASERIVNHIKYYLNLITEKPSDF | not soluble
MGHHHHHHSHMFPCQHCERKFTTKQGLERHMHIHISTVNHAFKCKYCGKAFGTQINRRRHERRHEAGLKRKPSQ | soluble
MGSDKIHHHHHHMLTDMQRDSASSSTVTTEQIVYGALPLTTINEPECRAIAITSINGSATLSGVSGPMGDQTDADLLIQLRGWADAIVVGAETARKENYGPVVLPHGIKNQRQKLGRCGLPKLTLLSKSLYFDFSSELFSPDLPSELSPLVITQQPANNSEQWDQRLQKLIDVGVEVIVAPTSTNPLKIAFDALHARRLKKISIEGGPSVYRQALSLGIVDRLHLTIAPNIICPVESPLFGKISDDSFTTRLVLEMLSSSPNGLIFSRYKVIRDTLGNPTQ | not soluble
TVSRENRAEDSRVAAKGVAFGGGETVRIAAEPSVWSNADAVFLDPFFTSANLYDTLSADEGRGRCRRLAEQAASAHGAGKPVLVRVRNVRHVEAALNAGADILYLGGGLMSDLAVLNEAGSLNIPLVLCKDKHHSAEDWLNAAEYVVSRGNRHLILGESGVLGHTKGHPYRLDVESIVKVRQISHLPVIANITGLWSRDMPQEILYGLAKAAGACGIV | not soluble
MGSDKIHHHHHHVQDKNFDKLAHKFAKNIYGTPKGEIRAAVLWRDLSSALAPFGDKKLRILDAGGGFGFFSQKLARLGHEVVLCDISQEMLIQAQAHIDASTEPLNIELIHAPIQALSVEQNGVFDLILCHAVVEWLTDAQRTMEGLLTMLKPNGLFSLMFYNKEAMRFHALISGNFDYVAADLKVKKKVRLTPTHPLYIQEVKQWFMDWEMTLISQSGVRVIHDYLKKSQAADFDYQKLLQMELEYSQHEPYISLGRYVHFLGISRGT | not soluble
MGSDKIHHHHHHAAVKKIIEMGQNDNQVMHQLDILTNRFGGRLIGSDAYENAAEWMVREFKSWGLDVQLEEAGTVPVGFNRGPWFGRLLSDNGMILHFATPSYTSGTKGVQRGHAVMEPRNDEEFQQIKGRLNGAWVLISGKNVGWPIDRSASGDSIRAEIKKENNEIMKKNNDLRRRNWENGEKNEMLPYKEFPGLYYKEMCEAGALGFIQSSTVPIRALYDRKMMNDPNTNFDNLPELPDIKLDEHQFAIIEQMVKERRTFELEFDIRNHFKLGPVKYHNVVASIKGSKYPDEYVIISGHLDAFDVATGGIDCGTGIGPMMEAARMIAKSGAKPKRTILFIGFAGEEFGLLGAQAWVKAHKDKLPKIANLFNRDGGPEPPVGISVPQAMYDDFVKISEPIQKIRPDYPFEVKVREPRKRPTRMGGTDASVFAIEGVPTLGFTTEDFKGYDFDYGEIWHTERDLYTKNIPEYQEHTATVTAIIALGVANLDKQLSREGLYTEE | not soluble
MAHHHHHHMSVATEMKVEEGIHLCGDQEFKLEDISSCVSEIFEKKKKYENIPFIQVAPMINVTNRHFRALVRTITRRAQVWTEMIVDNTLLYNLNNLEEHLGFNSNEHPIVCQLGGSDATSLAEAAVLVEQAGYDEINLNVGCPSTKVANKGAFGAYLMKKPEHVRNIVYEIKRKVHIPVSVKIRTGVDDCDSFPFLRSFVECISSVGCSHFIVHARKAWLKGLDPKQNRSVPPLEYPKVYSLCQLYPHLKFTLNGGVKTVEEAVALLNGYLPKKGNVDSEKTYVQVKNYQVNPLHGVMLGRACMENTTVLSQTDQLVYNEKPPHTAFSRRTVLDAYKSYLEENSSLCSLSSAFELLKPVLGILKGMPGHRIFRNKLDMYIRNYASTLPCSGILEKAMVDVDAVAPGCLDLPLADYKLQQEYIKNY | not soluble
HQYFFAKLQEQQNRYAKYGETAYNLEPNIKNGPGGLRDLQILLSISKRHFKIKKLAEGIGYGFITDKEYEELKYCQNFLWRVRFALHMLAGKPEERLSFDYQVKLAQFFGYQDQSHILAIEQFMKDYFKVIKRNRELNEMLLQWFNETIVYHQKQKIIRLDDEFQLSNRFIEVRNNRVFKQNPQSILKLFYWLVKRPDIEGVRASTIRLI | not soluble
MAEFRIAQDVVARENDRRASALKEDYEALGANLARRGVDIEAVTAKVEKFFVAVPSWGVGTGGTRFARFPGTGEPRGIFDKLDDCAVIQQLTRATPNVSLHIPWDKADPKELKARGDALGLGFDAMNSNTFSDAPGQAHSYKYGSLSHTNAATRAQAVEHNLECIEIGKAIGSKALTVWIGDGSNFPGQSNFTRAFERYLSAMAEIYKGLPDDWKLFSEHKMYEPAFYSTVVQDWGTNYLIAQTLGPKAQCLVDLGHHAPNTNIEMIVARLIQFGKLGGFHFNDSKYGDDDLDAGAIEPYRLFLVFNELVDAEARGVKGFHPAHMIDQKHNVTDPIESLINSANEIRRAYAQALLVDRAALSGYQEDNDALMATETLKRAYRTDVEPILAEARRRTGGAVDPVATYRASGYRARVAAERPASVAGGGGIIGSHHHHHH | soluble
MSLSISFKDVPAGHWSYKAILDLASKNIVTGYGNGIFGFGDDVTREQVARLMYLQLKPESQENYNNPYNDINDHSTSFKREILALTEMGIFAGDEKGNFRPKASLTREEMAQVLTNAYKLVAKSEHTFVDVDRKSWSNKAISAVQSNRIAAGTGDNMFSPKMNVTREQYVQFLYNATLPYEERPGANQEPKRFANCKEANDAGYYDITRDSPYYGKHLDRDGDGIACERNKSSKEGHHHHHH | not soluble
PWTQNKRNLKHLNQLKEDILNNFEDLKLKDEKIIVMLSGGKDSAVSLAVAKELGLNVHLCVHFVHKWSWDISTNEAKKLADRFNIPIIFPNVTEELAKKTQGAKGKSICRICKTIMKARMIDIAKEENAKIIMTGETALEKIAGPVFQYIRENNTNVKRKDEFELYKKMEITKVPKRYKIHFFRPLIRVGHFDVFNLQKYYNIDIKRVSE | not soluble
MGSDKIHHHHHHMRPIQRKRVPGLNAWEARWYHGTKWVRVSSANGKSRRARRFSLMVLGGWVMERAQHNLRFTELARARAYAQAHGLRQKAVCHIVRRGTELLVFDHVPDGGAGVQVVAGGLEAGETPEQAALREAGEETGQDGFQVVGFLGSAVWLNTEHAKRELRHFVHLTAPDDLPDTWQHCADGHLFSFRWEPLHSARVDWEMDAFLPELG | not soluble
MFDPKMLSVEFRNGITDEKPIEGRKYTLTHNDDTGELFLTVALAYAYDKINSSARDEVFGVWKRGNNRFILKIYLYVDGNQGREEAIKRDRIFRKELPLALAAIAYGDRKFLDDNDDLLNSNIIVRFISAYEELNKIENYGTLKDYLEHHHHHH | soluble
MGSDKIHHHHHHMKIGVVGPGAIGLLYTFYLQKSNQDVTLFTRTAKQADELNITGVTCIREGKRETVFPPVLPIESMLDQQLDYIFIAVKQYHITDILPFVRGKSSVVFLQNGMSHLHAMQKIENENIAVGIVEHGAKKEERHTVYHTGIGVTKFGIVRGRSIHFEKIFNCFPFPHFPIRIEDDWKGVMHKKLVVNVCINPLTALLQVKNGELITNPFFNQMMEQVFQEVVFLVKEEKEMVWEMVRHVCERTSHNTSSMLADVRANRQTEIGAIVGYVLEEAKKQQRSVPTLQFLFDAIKGLEVKV | not soluble
MGSDKIHHHHHHMNIAIIGSGLTGSLAAISLAKAGCRVDLYERLSDEELVNRDRTYAITHSSRKILEKLGIWSNLSRDLVPFQFLNVIDYELNKKFVFLTNDLPIPDQKYSAVGWIAEHKFIMLSILSVISNLENINKIPTSVIPNTNNYDLIVAADGSSSNTKKKLNTPSFHFKYDQMCITAKVLLRGVKSNEAFEILNSEGPFAVLPLGGDLFQVICSQSILKGTYNMNLSKSLFLDYLSTILPYGIEPDTIIDSPESFPIDFCLNYLFFSGKYIYLGETAHKIHPVGGQGLNLCWRDVDCLSKLLSIPLLKNNHSLIPLIYSISRSFDVLSISILTDSLVRYSRSNISIFYLPRLLVFFILKKSSLFRKYILNLMTNGF | not soluble
